For 132 substances, amyloid nucleation score results are on record in the supplement of paper PMC12042874.

± gives the uncertainty stated by the source.

This data set in a line: amyloid nucleation score (Sup35N fusion, yeast selection) (log enrichment); library NNK3; higher = more nucleation; inactive = no reads after selection. In outline:
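Output and input plasmid inserts were sequenced by Illumina after psi-negative yeast carrying Sup35N fused to peptides of 20 random codons had been induced 24 hours with 100 μM copper sulfate and grown 7 days at 30°C on medium lacking adenine and uracil. The nucleation score is the DiMSum log enrichment of output over input reads, centred on the mode score of non-aggregating sequences. Sequences with under 100 input reads were excluded.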
For the substance GMHCFIEPLSRVFGSNCGNY, the amyloid nucleation score entry is “inactive”.
As to TLDVR, the amyloid nucleation score entry is “inactive”.
To CVASGCTVKACFYSMREDRY belongs 1.53 ± 0.092; to RYMFWQWRGEL, 0.958 ± 0.17.
To ARNFLVRIWHCDRFSDCGII belongs “inactive”.
VGVNWTFPMPLSTL: the amyloid nucleation score result is “inactive”.
To ITGHSVLCWGNSSSTMCEMG belongs “inactive”; to EIVRRSSVISCHRT, “inactive”; to SDNGEIMILYRLRAVGDFE, “inactive”.
Turning to FSACS, the amyloid nucleation score entry is “inactive”.
Then HYAASSLYLTATHGFICSMC, with 1.73 ± 0.073; and KVLQPANVLRLTGFVSVRGV, with “inactive”.
To FTSDGEYNRVLPGRSQGASF belongs -0.92 ± 2.5; to MCLYQGESRYGSYLYFTDIN, “inactive”.
Then PSHSLSGRCHV, with “inactive”; and IYIGQFSLVVCVIIDIDI, with 1.75 ± 0.11; and MIRWAYLCM, with “inactive”.
For RCMPRCALACTRLSPGRSVV, the amyloid nucleation score result is “inactive”.
To SNQTWMVNET belongs “inactive”; to LWLTLGDGIEGVYPRVGVKL, “inactive”.
To TFSYGSFLRSYLLMC belongs “inactive”; to GSFYCLYFVGDVIIILTCLR, “inactive”.
To SLNER belongs “inactive”; to FMKILQVTDWDPGSVYNSSN, “inactive”.
As for HNRKYYTI, the amyloid nucleation score entry was “inactive”.
As to YKFSVTTL, the amyloid nucleation score entry is “inactive”.
Then MYWWRFVGLQSIYSGQLCKR, with “inactive”; and SISLITFCRMCDAWLWRFGV, with “inactive”; and YSCNKCVDEMRVRRGIERGV, with “inactive”.
Then TPKWILMERNTSRGWATSA, with “inactive”.
To TYEEGRRQCSRAPMDSYVQS belongs “inactive”.
For the substance SFLLFYVLRYP, the amyloid nucleation score entry was “inactive”.
To SKFIRRT belongs “inactive”.
Regarding WSTLKMVRVCYGASFSNVYM, the amyloid nucleation score entry is “inactive”.
LSLATTSTLTLPMWKGTRLN returned an amyloid nucleation score of 0.744 ± 0.2.
Then FFSASQRVAY, with “inactive”; and RLFLINSGASDPNSQMSNLR, with “inactive”.
To KRECYMIIHI belongs “inactive”; to PFNYVVRWESKLQSHYFGLY, “inactive”.
KSGIV: the amyloid nucleation score amounted to 0.633 ± 0.19.
To YHRRLSTVLMGCMNRGLNYL belongs “inactive”.
To GCFYCQALNLHPLTSVHAD belongs “inactive”; to LCKFYRYRTLRHSEEKPCHH, “inactive”; to RRCNVMLKNDLNCLPSSLFI, 0.322 ± 0.62.
To FGSGRVSQLVRYDSFLEEFL belongs “inactive”.
In the case of RVVGRRSNYFVFLFRTLGRN, the amyloid nucleation score result was “inactive”.
Then FGTDDEDVKCNVMTALCRIW, with “inactive”; and TYEST, with “inactive”.
Substance HVVFLSSMVATTLLWFG gave an amyloid nucleation score of 1.26 ± 0.12.
To MFCSIIKSQTVAFLVGSSFG belongs 0.145 ± 0.26.
Then ELVVLYLYRRASSGWS, with “inactive”; and VFAISV, with “inactive”; and YSSSC, with “inactive”.
Then HRTCITTNDDCLSRGTLP, with “inactive”.
As for KVIKDNLEVCFLKSMWC, the amyloid nucleation score result was “inactive”.
To TDVLELVSTHCRYGFSVPQP belongs “inactive”; to CLIYTTVFHSAG, 0.708 ± 0.13.
To SAYVYTD belongs -0.156 ± 0.66; to SDGDVMFLVKIEAGAFSGGM, “inactive”.
Then LFKMSV, with “inactive”.
TIVNGNVEFGMKLEWEHGCI: the amyloid nucleation score entry is “inactive”.
To VSKLWSYLVLYPHWV belongs “inactive”; to VTASSPDLIGGVHMEWRLTC, “inactive”; to GRARMFGLGRVFKVCMKLRA, -0.543 ± 0.54.
Consider PQHLFST, for which the amyloid nucleation score result is “inactive”.
Then LNMHFENTIRGVPYTLVSGR, with “inactive”; and DAETPLHSFGMQLLGRASMR, with “inactive”.
Take IDKVLGPKVPAHRTSGGLSK: the amyloid nucleation score result is “inactive”.
To GLRDMGDKYVYMVSGGCIYG belongs 2.19 ± 0.069.
Then VMKNSTIILSFTFLSPKVSF, with 2.16 ± 0.069; and NTGCSDNFESFCLKATVHWV, with “inactive”.
Then MVCIDPFNENLVRVRMTVIG, with “inactive”.
DMSHMIEICFVTNYTKGYVT: the amyloid nucleation score entry was “inactive”.
To RGPVNCYYRISPRRPRHVSE belongs “inactive”.
Then MGVSWIII, with “inactive”; and NHDIDALTQTQPTDNSYL, with “inactive”.
The substance DSRAGRGMSFLRFNRRSVDE yielded an amyloid nucleation score of 0.209 ± 0.38.
To LIDMVVFNYKLVIRVRKGSL belongs “inactive”; to TFFTGKIRNKAVFEDSSYCK, “inactive”.
To DVRKRSFIYVCNRSLVVPFR belongs “inactive”; to FWKNHRAIHSMFQRHLRHTF, “inactive”; to RNKSSNFREHPVTSRITCRS, “inactive”.
With MCKRGRDCGLLFVSTDDLGD, the amyloid nucleation score entry is “inactive”.
Then SRSCNVLSEWRGINVNGWGN, with -0.176 ± 1.1; and EKDNKLLVICMLV, with “inactive”.
Regarding PATVNRSWNFGIRFNGARNN, the amyloid nucleation score was -0.404 ± 0.8.
To MSMPWNNHMISNVYRSYFVA belongs “inactive”.
Then RLYVPLLVDVLWEKCKHSNV, with “inactive”.
On to DNCFRKWT, for which the amyloid nucleation score entry was “inactive”.
To GVYSVSLLVLWMSMRASIAC belongs “inactive”; to LFDCFVILKDFACEFKNIPD, “inactive”.
Then KWLVPTQG, with “inactive”.
To RLIWFE belongs “inactive”.
As to DSNVRSFVSMLSVN, the amyloid nucleation score entry is “inactive”.
Then RACML, with “inactive”; and AIFRS, with “inactive”; and LIVYFRPYGNALRRFVRSYV, with “inactive”.
Then PSLRRTSLGSLKSSMANSWQ, with “inactive”; and SSQDVTALLSRLN, with “inactive”.
To YVIVLNR belongs 2.3 ± 0.069; to NDNINRSPESSALWYD, “inactive”.
SWNRGNLTM: the amyloid nucleation score result is “inactive”.
Regarding YDKLSYKLPLF, the amyloid nucleation score entry was “inactive”.
To TSAMSYFGDIYWCRKFRRVG belongs “inactive”; to SGRCRSGRQAIRCCILLNVL, “inactive”; to TCNYMSGGFALRFTISYGGA, “inactive”.
With RVMRSDDVWMCSSLHDFCAV, the amyloid nucleation score result was “inactive”.
To FSVGFYFIYMTLKCGSCVQW belongs -0.362 ± 1.1; to LLANDSWF, “inactive”.
As to GYICLGPPAVTVIYVRICRQ, the amyloid nucleation score was -0.495 ± 1.
Turning to FLHPLSLDSNFLNSVCHFKK, the amyloid nucleation score entry was “inactive”.
To FWLGDM belongs “inactive”.
To GSNVNEVKNAQYTSRVGVCR belongs “inactive”.
To YDCWFPHLSECLQLDTIFKA belongs “inactive”.
RRPLVWKFFQNLGTMN: the amyloid nucleation score entry was “inactive”.
To MSLLASLLIMYIPIRYNVE belongs “inactive”; to PVYCDCSYVREGVTITITIH, “inactive”.
Then WIAVPRVGTWVGEKMS, with “inactive”; and VWETKMTLLINSKNYFVGFW, with “inactive”.
To VVWDGMQIGSWPQ belongs “inactive”; to LNTNWCSSK, “inactive”.
Regarding NRFQLVSRYAWHSWVK, the amyloid nucleation score entry is “inactive”.
Then FICERMRRIVESNVDLLGFY, with -0.359 ± 0.32; and KGMDMVI, with “inactive”.
To HMCCKYVPRNKSGSLVFKRG belongs “inactive”; to VSGSKWQLREGVAKYMMCRY, “inactive”.
To SLWMQGWYSSGLLPFGSIAE belongs “inactive”; to HVMTHFG, “inactive”.
For the substance SMSPTKLYSSIMVNSWEWLF, the amyloid nucleation score result is “inactive”.
For FDTWFLRFRTNDVYLKVFFY, the amyloid nucleation score result was “inactive”.
Regarding AFFSFNAD, the amyloid nucleation score entry is “inactive”.
To EFWLISFQSQLSFYCDFRYD belongs “inactive”.
